Assay results reported in US20250340643A1.

Key:
[1] = biological target: CTLA4 on the cells of the reporter gene bioassay (human) (UniProt P16410); assay: cell-based or functional assay
recombinant FcRn = recombinant FcRn (UniProt P55899); assay: SPR, recombinant FcRn immobilized on the sensor; relative to Reference Standard
[2] = biological target: CTLA-4 (as used in the CTLA-4 binding assay) (human) (UniProt P16410); assay: CTLA-4 binding relative to tremelimumab Reference Standard; method not named for this table (competitive ELISA or SPR per the methods)
Sequence of CTLA-4 (as used in the CTLA-4 binding assay) (human) (P16410 36-161 limits assumed): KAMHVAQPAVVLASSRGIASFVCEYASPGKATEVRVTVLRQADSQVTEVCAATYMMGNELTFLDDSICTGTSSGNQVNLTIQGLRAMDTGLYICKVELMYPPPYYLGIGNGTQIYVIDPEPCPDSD

Sequence of CTLA4 on the cells of the reporter gene bioassay (human) (P16410 36-223): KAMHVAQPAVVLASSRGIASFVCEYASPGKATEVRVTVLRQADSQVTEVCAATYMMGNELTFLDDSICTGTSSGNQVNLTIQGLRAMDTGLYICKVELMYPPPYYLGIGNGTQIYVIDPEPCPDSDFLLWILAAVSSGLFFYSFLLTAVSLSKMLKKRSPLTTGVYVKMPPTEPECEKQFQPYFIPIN

Rel. Potency (%) (reporter gene bioassay) [1]: 78%
Rel. FcRn Binding (%) (recombinant FcRn): 95%
Rel. CTLA-4 Binding (%) [2]: 62%
Substance: Tremelimumab IEC Fraction D (acidic peak 1), after pH 9 for 7 days (antibody)
